{
  "source": "paper doi:10.1101/2024.01.23.576883",
  "about": "(bioRxiv, 2024)",
  "key": {"[1]": {"molecular_target": "T1, FUS-mscarlet3, released from MBP-FUS-mscarlet3-His6 by TEV protease (UniProt P35637 1-526)", "T1 sequence": "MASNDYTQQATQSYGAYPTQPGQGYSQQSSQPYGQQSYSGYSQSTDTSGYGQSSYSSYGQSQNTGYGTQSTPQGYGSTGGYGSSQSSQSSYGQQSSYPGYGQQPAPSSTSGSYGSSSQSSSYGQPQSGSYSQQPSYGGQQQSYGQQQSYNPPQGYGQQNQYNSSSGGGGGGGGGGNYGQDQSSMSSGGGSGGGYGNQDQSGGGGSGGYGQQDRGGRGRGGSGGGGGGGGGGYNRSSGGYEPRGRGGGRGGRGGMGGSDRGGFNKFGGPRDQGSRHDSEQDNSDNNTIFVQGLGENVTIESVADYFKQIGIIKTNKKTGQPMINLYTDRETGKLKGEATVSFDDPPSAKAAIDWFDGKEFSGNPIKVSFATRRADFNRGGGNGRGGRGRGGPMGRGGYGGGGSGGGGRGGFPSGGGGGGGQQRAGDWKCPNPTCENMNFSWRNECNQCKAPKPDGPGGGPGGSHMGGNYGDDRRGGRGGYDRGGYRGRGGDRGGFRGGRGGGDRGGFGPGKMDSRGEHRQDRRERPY", "test": "fluorescence polarisation"}, "[2]": {"molecular_target": "the molecule itself", "test": "microfluidic diffusional sizing"}, "[3]": {"molecular_target": "T2, HspB6-meGFP-His6 (human), O14558", "T2 chain": "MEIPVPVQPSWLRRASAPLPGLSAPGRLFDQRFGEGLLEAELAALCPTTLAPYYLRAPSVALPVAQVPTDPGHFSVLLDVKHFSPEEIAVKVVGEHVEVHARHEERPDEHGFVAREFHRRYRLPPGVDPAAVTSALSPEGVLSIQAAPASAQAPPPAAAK", "test": "microfluidic diffusional sizing", "conditions": "remark: other sources report otherwise"}},
  "data": [
    {"binder": "HspB4-meGFP-His6 (natural protein) MDVTIQHPWFKRTLGPFYPSRLFDQFFGEGLFEYDLLPFLSSTISPYYRQSLFRTVLDSGISEVRSDRDKFVIFLDVKHFSPEDLTVKVQDDFVEIHGKHNERQDDHGYISREFHRRYRLPSNVDQSALSCSLSADGMLTFCGPKIQTGLDATHAERAIPVSREEKPTSAPSS", "values": [
      {"measurement": "binding result", "setting": "[1]", "value": "binds"}
    ]},
    {"binder": "HspB5-meGFP-His6 (natural protein) MDIAIHHPWIRRPFFPFHSPSRLFDQFFGEHLLESDLFPTSTSLSPFYLRPPSFLRAPSWFDTGLSEMRLEKDRFSVNLDVKHFSPEELKVKVLGDVIEVHGKHEERQDEHGFISREFHRKYRIPADVDPLTITSSLSSDGVLTVNGPRKQVSGPERTIPITREEKPAVTAAPKK", "values": [
      {"measurement": "binding result", "setting": "[2]", "value": "binds"}
    ]},
    {"binder": "HspB6-meGFP-His6, O14558 1-160 (natural protein) MEIPVPVQPSWLRRASAPLPGLSAPGRLFDQRFGEGLLEAELAALCPTTLAPYYLRAPSVALPVAQVPTDPGHFSVLLDVKHFSPEEIAVKVVGEHVEVHARHEERPDEHGFVAREFHRRYRLPPGVDPAAVTSALSPEGVLSIQAAPASAQAPPPAAAK", "values": [
      {"measurement": "stoichiometry N", "setting": "[3]", "value": 2}
    ]}
  ]
}
